# B1: hu199-36 (antibody, human IgG1, kappa, V domains shown)
# VH: EVQLVQSGAEVKKPGASVKVSCKASGYTFTTYWMHWVKQAPGQGLEWMGMIDPSDSETTLIQKFKDKVTLTVDKSTSTAYMELSSLRSEDTAVYYCARTLDGYYDYWGQGTTVTVSS
# VL: DIQMTQSPSSLSASVGDRVTITCRASENIYSYLAWYQQKPGKSPQLLVYFAKTLAEGVPSRFSGSVSGTQFTLTISSLQPEDFATYYCQHHYGTPWTFGGGTKVEIKR
# B2: hu179-08 (antibody, human IgG1, kappa)
# heavy: EVQLVQSGAEVKKPGSSVKVSCKASGYTFSNYLIEWVRQAPGQGLEWIGVIDPGNGDTNYNENFKGRATLTADKSTSTAYIELSSLRSEDTAVYYCAREDNTGTAFDYWGQGTTVTVSSASTKGPSVFPLAPSSKSTSGGTAALGCLVKDYFPEPVTVSWNSGALTSGVHTFPAVLQSSGLYSLSSVVTVPSSSLGTQTYICNVNHKPSNTKVDKKVEPKSCDKTHTCPPCPAPELLGGPSVFLFPPKPKDTLYITREPEVTCVVVDVSHEDPEVKFNWYVDGVEVHNAKTKPREEQYNSTYRVVSVLTVLHQDWLNGKEYKCKVSNKALPAPIEKTISKAKGQPREPQVYTLPPSRDELTKNQVSLTCLVKGFYPSDIAVEWESNGQPENNYKTTPPVLDSDGSFFLYSKLTVDKSRWQQGNVFSCSVMHEALHNHYTQKSLSLSPGK
# light: DIVMTQTPLSLSVTPGQPASISCKASQSVSSDVTWYLQKPGQSPQLLIYYVSNHYTGVPDRFSGSGSGTDFTLKISRVEAEDVGVYYCQQHHRFPLTFGQGTKLEIKRTVAAPSVFIFPPSDEQLKSGTASVVCLLNNFYPREAKVQWKVDNALQSGNSQESVTEQDSKDSTYSLSSTLTLSKADYEKHKVYACEVTHQGLSSPVTKSFNRGEC
# notes: humanized, IgG1-YTE/kappa
# B3: hu179-33 (antibody, human IgG1, kappa, V domains shown)
# VH: EVQLVQSGAEVKKPGSSVKVSCKASGYTFSNYLIEWVRQAPGQGLEWIGVIDPGVGDTNYNENFKGRATLTADKSTSTAYIELSSLRSEDTAVYYCAREDNTGTAFDYWGQGTTVTVSS
# VL: SIVMTQTPLSLSVTPGQPASISCKASQSVSSDVTWYLQKPGQSPQLLIYYVSEHYTGVPDRFSGSGYGTDFTLKISRVEAEDVGVYYCQQHHRFPLTFGQGTKLEIKR
# B4: hu3-13 (antibody, human IgG1, kappa, V domains shown)
# VH: EVQLVQSGAEVKKPGASVKVSCKASGYTFTDDYMNWVRQAPGQRLEWMGIISPYNGGTSYNQKFKGRVTLTVDKSASTAYMELSSLRSEDTAVYYCAREDYDYDGYAMDYWGQGTTVTVSS
# VL: EIVLTQSPATLSLSPGERATLSCRASSSVSYMHWYQQKPGQAPRPWIYATSNLASGVPARFSGSGSGTSYTLTISRLEPEDFAVYYCQQSDSGREFGGGTKVEIKR
# B5: hu119-13 (antibody, human IgG1, kappa, V domains shown)
# VH: EVQLVQSGAEVKKPGSSVKVSCKASGFTFSTYNMHWVKHAPGQGLEWIGAIYPGNGETSYNQKFKDRATLTVDKSTSTAYMELSSLRSEDTAVYYCAREDDYGEGYFDVWGQGTTVTVSS
# VL: EIVLTQSPATLSLSPGERATLSCRASESVDNSGLSFMHWYQQKPGQAPRLLIYRASNLGSGIPARFSGSGSGTDFTLTISSLEPEDFAVYYCQQINTDPLTFGQGTKLEIKR
# notes: humanized, IgG1-YTE/kappa
# B6: hu119-18 (antibody, human IgG1, kappa)
# heavy: EVQLVQSGAEVKKPGSSVKVSCKASGFTFSTYNMHWVKHAPGQGLEWIGAIYPGNGETSYNQKFKDRATLTVDKSTSTAYMELSSLRSEDTAVYYCAREDDYGEGYFDVWGQGTTVTVSSASTKGPSVFPLAPSSKSTSGGTAALGCLVKDYFPEPVTVSWNSGALTSGVHTFPAVLQSSGLYSLSSVVTVPSSSLGTQTYICNVNHKPSNTKVDKKVEPKSCDKTHTCPPCPAPELLGGPSVFLFPPKPKDTLYITREPEVTCVVVDVSHEDPEVKFNWYVDGVEVHNAKTKPREEQYNSTYRVVSVLTVLHQDWLNGKEYKCKVSNKALPAPIEKTISKAKGQPREPQVYTLPPSRDELTKNQVSLTCLVKGFYPSDIAVEWESNGQPENNYKTTPPVLDSDGSFFLYSKLTVDKSRWQQGNVFSCSVMHEALHNHYTQKSLSLSPGK
# light: EIVLTQSPATLSLSPGERATLSCRASESVDNSGLSFMHWYQQKPGQPPRLLLYRASNLGSGIPARFSGSGSGTDFTLTISSLEPEDFAVYYCQQINTDPLTFGQGTKLEIKRTVAAPSVFIFPPSDEQLKSGTASVVCLLNNFYPREAKVQWKVDNALQSGNSQESVTEQDSKDSTYSLSSTLTLSKADYEKHKVYACEVTHQGLSSPVTKSFNRGEC
# notes: humanized, IgG1-YTE/kappa
# B7: hu119-30 (antibody, human IgG1, kappa, V domains shown)
# VH: EAQLVQSGAEVKKPGSSVKVSCKASGFTFSTYNMHWVRQAPGQGLEWIGAIYPGNGETSYNQKFKDRATLTVDKSTRTAYMELSSLRSEDTAVYYCAREDDYGEGYFDVWGQGTTVTVSS
# VL: DIVLTQSPATLSLSPGERATLSCRASESVDSSGLSFMHWYQQKPGQPPRLLLYRASNLGSGIPARFSGSGSGTDFTLTISSLEPEDFAVYYCQQINTDPLTFGQGTKLEIKR
# B8: AMG157 (antibody, human IgG2, lambda, V domains shown)
# VH: QMQLVESGGGVVQPGRSLRLSCAASGFTFRTYGMHWVRQAPGKGLEWVAVIWYDGSNKHYADSVKGRFTITRDNSKNTLNLQMNSLRAEDTAVYYCARAPQWELVHEAFDIWGQGTMVTVSS
# VL: SYVLTQPPSVSVAPGQTARITCGGNNLGSKSVHWYQQKPGQAPVLVVYDDSDRPSWIPERFSGSNSGNTATLTISRGEAGDEADYYCQVWDSSSDHVVFGGGTKLTVLG
# B9: hu119-03 (antibody, human IgG1, kappa)
# heavy: EVQLVQSGAEVKKPGSSVKVSCKASGFTFSTYNMHWVKHAPGQGLEWIGAIYPGNGETSYNQKFKDRATLTVDKSTSTAYMELSSLRSEDTAVYYCAREDDYGEGYFDVWGQGTTVTVSSASTKGPSVFPLAPSSKSTSGGTAALGCLVKDYFPEPVTVSWNSGALTSGVHTFPAVLQSSGLYSLSSVVTVPSSSLGTQTYICNVNHKPSNTKVDKKVEPKSCDKTHTCPPCPAPELLGGPSVFLFPPKPKDTLYITREPEVTCVVVDVSHEDPEVKFNWYVDGVEVHNAKTKPREEQYNSTYRVVSVLTVLHQDWLNGKEYKCKVSNKALPAPIEKTISKAKGQPREPQVYTLPPSRDELTKNQVSLTCLVKGFYPSDIAVEWESNGQPENNYKTTPPVLDSDGSFFLYSKLTVDKSRWQQGNVFSCSVMHEALHNHYTQKSLSLSPGK
# light: DIVMTQSPDSLAVSLGERATINCRASESVDNSGLSFMHWYQQKPGQPPKLLIYRASNLGSGVPDRFSGSGSGTDFTLTISSLQAEDVAVYYCQQINTDPLTFGQGTKLEIKRTVAAPSVFIFPPSDEQLKSGTASVVCLLNNFYPREAKVQWKVDNALQSGNSQESVTEQDSKDSTYSLSSTLTLSKADYEKHKVYACEVTHQGLSSPVTKSFNRGEC
# notes: humanized, IgG1-YTE/kappa
# B10: hu119-07 (antibody, human IgG1, kappa)
# heavy: EVQLVQSGAEVKKPGSSVKVSCKASGFTFSTYNMHWVKHAPGQGLEWIGAIYPGNGETSYNQKFKDRATLTVDKSTSTAYMELSSLRSEDTAVYYCAREDDYGEGYFDVWGQGTTVTVSSASTKGPSVFPLAPSSKSTSGGTAALGCLVKDYFPEPVTVSWNSGALTSGVHTFPAVLQSSGLYSLSSVVTVPSSSLGTQTYICNVNHKPSNTKVDKKVEPKSCDKTHTCPPCPAPELLGGPSVFLFPPKPKDTLYITREPEVTCVVVDVSHEDPEVKFNWYVDGVEVHNAKTKPREEQYNSTYRVVSVLTVLHQDWLNGKEYKCKVSNKALPAPIEKTISKAKGQPREPQVYTLPPSRDELTKNQVSLTCLVKGFYPSDIAVEWESNGQPENNYKTTPPVLDSDGSFFLYSKLTVDKSRWQQGNVFSCSVMHEALHNHYTQKSLSLSPGK
# light: DIVLTQSPDSLAVSLGERATINCRASESVDNSGLSFMHWYQQKPGQPPKLLIYRASNLGSGVPDRFSGSGSGTDFTLTISSLQAEDVAVYYCQQINTDPLTFGQGTKLEIKRTVAAPSVFIFPPSDEQLKSGTASVVCLLNNFYPREAKVQWKVDNALQSGNSQESVTEQDSKDSTYSLSSTLTLSKADYEKHKVYACEVTHQGLSSPVTKSFNRGEC
# notes: humanized, IgG1-YTE/kappa
# B11: hu119-11 (antibody, human IgG1, kappa, V domains shown)
# VH: EVQLVQSGAEVKKPGSSVKVSCKASGFTFSTYNMHWVKHAPGQGLEWIGAIYPGNGETSYNQKFKDRATLTVDKSTSTAYMELSSLRSEDTAVYYCAREDDYGEGYFDVWGQGTTVTVSS
# VL: DIVMTQSPDSLAVSLGERATINCRASESVDNSGLSFMHWYQQKPGQPPKLLLYRASNLGSGIPDRFSGSGSGTDFTLTISSLQAEDVAVYYCQQINTDPLTFGQGTKLEIKR
# notes: humanized, IgG1-YTE/kappa
# How the values were obtained:
# [1] = target: Fc-tagged human TSLP antigen (huTSLP-Fc) (human); assay: cell-based or functional assay
# [2] = target: T1, His-tagged human TSLP antigen (huTSLP-his) (human); assay: ELISA, coated huTSLP-his
# T1 construct: also called Human TSLP-his
# Protocol: After discarding the liquid, 200 μl/well of blocking solution with 5% skimmed milk (Bright Dairy skimmed milk powder) diluted in PBS was added and incubated in a 37° C. incubator for 2 hours for blocking. After blocking was over, the blocking solution was discarded, and the plates were washed with PBST buffer (PBS containing 0.1% tween-20, pH 7.4) for 3 times. […] After incubation was over, the plates were washed with PBST for 3 times. […] After washing the plate with PBST for 6 times, 50 μl/well TMB chromogenic substrate (KPL, 52-00-03) was added and incubated at room temperature for 10-15 min, and 50 μl/well 1 M H₂SO₄ was added to stop the reaction. The absorption value was read by using a NOVOStar microplate reader at 450 nm.
# native TSLP = native TSLP (human, UniProt Q969D9 29-159); assay: cell-based or functional assay
Binder,IC50 of inhibiting TSLP-induced proliferation of BaF3 cells overexpressing TSLPR/IL7R [1] [pM],EC50 [2] [pM],IC50 of inhibiting the proliferation of BaF3-TLSPR/IL7R cells induced by native TSLP (native TSLP) [pM]
B1,476,,
B2,,1020,
B3,409,,22.8
B4,444,,289
B5,,344,
B6,,346,
B7,430,,1530
B8,573,,
B9,,159,
B10,,213,
B11,,174,

# — patent publication US20260022166A1 (JIANGSU HENGRUI MEDICINE, published 2026)
